The record followed here is article PMC10635376, “New insights into the mechanism and DNA-sequence specificity of INO80 chromatin remodeling” (Research Square, 2023).

Some results are limits rather than exact numbers.

The test concerns the target Recombinant Xenopus laevis histone octamer reconstituted into 70N5 mononucleosomes (Xenopus laevis). Put plainly: native gel or EMSA; 70N5 601 nucleosomes with photo-reactive DNA bound with saturating INO80 at 30 C for 30 min; extent of binding on 4% native polyacrylamide gels.

With “Native wild-type Saccharomyces cerevisiae INO80 complex (from UniProt P53115 1-1489; P53946 1-755; P32617 1-166; P40154 1-320; Q12386 1-881; P80428 1-489; P60010 1-375)”, the percent of nucleosomes bound is > 90%.
